The text below walks through data of patent publication US11453711B2, “Fusion proteins of GLP-1 and GDF15 and conjugates thereof” (BEIJING QL BIOPHARMACEUTICAL CO., LTD., priority 2019, dated 2022).

Data set [1] in a line: Body weight and food intake in C57BL/6 mice, unconjugated fusion proteins, 30 nmol/kg daily 10 days. The conditions noted are these: for Body weight reduction at 30 nmol/kg (% reduction compared to vehicle)(Day11) / Cumulative food intake reduction at 30 nmol/kg (% reduction compared to vehicle)(Day11): C57 mice, 30 nmol/kg daily, Day11, unconjugated fusion proteins. The data set is classed as in vivo. The procedure: (§1) 10 week old male C57BL/6 mice were injected everyday subcutaneously with 15 nmol/kg of the fusion protein conjugates (i.e., MLC002, MLC 004, MLC 005, MLC 006, MLC 007, MLC 008, and MLC 009) for 14 days. Food intake and body weight were measured daily and five animals were used for each treatment group. Body weight (BW) was monitored for each individual animal, but food intake for each group animals was measured together. Day 1 and Day 14 are first day and last day of molecule dosage. % BW loss=100*(BW on Day n-BW on Day 1)/(BW on Day 1). Cumulative food intake on Day n represents sum of food intake from Day 1 to Day n. Data are indicated as mean values and standard error (SEM) or pooled values. Statistical analysis was performed by One-way ANOVA. Body weight reduction on Day 11 is calculated by −1*(% BW loss−% BW loss of vehicle group); Cumulative food intake reduction is calculated by −100*(cumulative food intake-cumulative food intake of vehicle)/cumulative food intake of vehicle.
As described in the above method, a daily dose of 30 nmol/kg of the unconjugated fusion proteins (i.e., MLC100, MLC023, MLC022, MLC020, MLC003, MLC124, MLC021, MLC019, MLC102) were administered to C57BL/6 for 10 days. Data were calculated as above method. Day 1 and Day 10 are first day and last day of administration.

Data set [2] can be described thus: Pharmacokinetic measurement in mouse, single sc dose 30 nmol/kg, plasma ELISA. The conditions noted are these: for Cmax: read-out: Cmax (nmol/L), single sc dose 30 nmol/kg; for exposure (Cmax and AUC) / half-life (T1/2): single sc 30 nmol/kg, in words; for AUC0-24 h / Terminal t1/2 / Tmax: single sc dose 30 nmol/kg. (ELISA stands for enzyme-linked immunosorbent assay.)
Procedure: Each fusion protein was injected subcutaneously into C57BL/6 mice (n=3/group) once and plasma samples were collected at designed time points and analyzed by ELISA method. Plasma concentrations are indicated as mean values and standard error (SEM).
6-8 week old male C57BL/6 mice were administrated in a single subcutaneous dose of 30 nmol/kg of the fusion protein conjugates or unconjugated fusion proteins (i.e., MLC002, MLC004, MLC005, MLC006, MLC007, MLC008, MLC009, MLC013, MLC017, MLC047, MLC074, MLC075, MLC089, MLC093, MLC003 and MLC019) (n=3/group). Plasma samples were collected pre-dose (−5 min), 0.5 hr, 1 hr, 2 hr, 4 hr, 6 hr, 8 hr, 12 hr, 24 hr, 48 hr and 72 hr after the injection. The concentrations of the fusion protein conjugates in the plasma were measured by an ELISA assay which has immunoreactivity towards both GDF15 and intact N-terminal of GLP-1. Based on the graph showing plasma concentration of each protein versus time after subcutaneous injection, the pharmacokinetic parameters (including Tmax, Cmax, T1/2, AUC) were calculated by WinNonlin software.

The nature of data set [3]: Body weight and food intake in C57BL/6 mice, fusion protein conjugates, 30 nmol/kg daily 10 days. The class given is in vivo. The procedure: as §1
Data were calculated in the same way as described above. Day 1 and Day 10 are first day and last day of the administration.
MLC014 was used as a negative control. MLC014 has an amino acid sequence of SEQ ID NO: 261, which contains a linker fused to the N terminal of GDF15, with a CRM conjugated to the lysine residue in the linker. Tirzepatide was also used as a control.

Data set [4] can be described thus: Efficacy in db/db mice: body weight, food intake, glucose, biomarkers, daily sc 14 days. The data set is classed as in vivo. The procedure:
FIGS. 4A-4D show In vivo efficacy in db/db mice. To evaluate the body weight, food intake and glucose effects of the fusion proteins, 8 week old male db/db mice were dosed everyday subcutaneously with 30 nmol/kg protein for 14 days. […] Compared to Vehicle control: ***, p<0.001. Data are expressed as mean values and standard error (SEM) for FIGS. 4A, 4B and 4D. n=5 for each treatment group. For FIG. 4C, a pooled food intake was measured for each treatment group.
FIGS. 5A-5F show In vivo efficacy in db/db mice. To evaluate the body weight, food intake and glucose effects of the fusion proteins, 8 week old male db/db mice were dosed everyday subcutaneously with different concentrations of proteins for 14 days. FIGS. 5A and 5B show body weight loss upon protein treatments from Day1 to Day15. […] Compared to Vehicle control: ***, p<0.001; **, p<0.01; *, p<0.05; ns, non-statistically significant; FIGS. 5D and 5E show cumulative food intake with protein treatments from Day1 to Day15. […] Compared to Vehicle control: ***, p<0.001**, p<0.01; *, p<0.05; ns, non-statistically significant. Data are expressed as mean values and standard error (SEM) for FIGS. 5A, 5B, 5C and 5F. n=5 for each treatment group. For FIGS. 5D and 5E, a pooled food intake was measured for each treatment group.
FIGS. 8A-8I show In vivo efficacy in db/db mice. To evaluate the body weight, food intake and glucose effects of the fusion proteins, 8 week old male db/db mice were dosed everyday subcutaneously with different concentrations of proteins for 14 days. […] FIGS. 8D-8F show body weight loss upon dose titrations of fusion protein conjugates. […] Data are expressed as mean values and standard error (SEM) for FIGS. 8A and 8C-I. n=5 for each treatment group. For FIG. 8B, a pooled food intake was measured for each treatment group.
Selected fusion protein conjugates are assessed in disease animal models (DIO mice, db/db mice, etc.) to determine body weight, food intake, glucose efficacy with dose responses. Some biomarkers are also measured, including fasting insulin, plasma triglyceride, cholesterol, liver triglyceride, and inflammatory biomarkers (ALT, AST and CRP).
8 week old male db/db mice were injected everyday subcutaneously with designated proteins for 14 days. Age matched lean mice were used as control. Food intake and body weight were measured daily and five animals were used for each treatment group. Fasting glucose were tested on designated days as shown in each figure. Body weight was monitored for each individual animal, but food intake for each group animals was measured together. Day 1 and Day 14 are first day and last day of molecule dosage. % BW loss=100*(BW on Day n-BW on Day 1)/(BW on Day 1). Cumulative food intake on Day n represents sum of food intake from Day 1 to Day n. Terminal blood was collected and EDTA-2K plasma was prepared and frozen at −80° C. for biomarker measurement. Liver was also collected and frozen in liquid nitrogen and store at −80° C. Data are indicated as mean values and standard error (SEM) or pooled values. Statistical analysis was performed by One-way ANOVA.

The nature of data set [5]: PK study in non-human primates, single sc dose 5 nmol/kg, plasma ELISA. The note with it: monkey, single sc dose 5 nmol/kg.
Setting [6] is: 30 nmol/kg, FIG. 8A-C, versus Semaglutide, Tirzepatide and MLC014.

B1: MLC019: unconjugated GLP-1/GDF15 fusion protein, linker of at least 80 residues (protein)
chain: HGEGTFTSDVSSYLEEQAAKEFIAWLVRGGGGQEPGAQPGQEPGAQPGQEPGAQPGQEPGAQPGQEPGAQPGQEPGAQPGAQPGAQPGAQPGAQPGAQPGAQPGAQPGAQPARQGDHCPLGPGRCCRLHTVRASLEDLGWADWVLSPREVQVTMCIGACPSQFRAANLHAQIKTSLHRLRPDTVPAPCCVPASYNPMVLIQRTDTGVSLQTYDDLLARDCHCI
On to B1, for which, in data set [1], the “Body weight reduction at 30 nmol/kg (% reduction compared to vehicle)(Day11)” value was 23.0% and the “Cumulative food intake reduction at 30 nmol/kg (% reduction compared to vehicle)(Day11)” value turned out to be 48.6%. Besides, the “in vivo efficacy (food intake and body weight reduction)” value in data set [1] (unconjugated fusion proteins, 30 nmol/kg daily 10 days, by linker length) is recorded as “the most significant results among all the tested fusion proteins”. For the same molecule, in data set [2], the Cmax came to 23.7 nmol/L; the “exposure (Cmax and AUC)” value is “much shorter half-lives and exposures than MLC002 and MLC004”; the “half-life (T1/2)” value was “much shorter half-lives and exposures than MLC002 and MLC004”; the “AUC0-24 h” value is 263.9 nmol·h/L. In data set [2], the “Terminal t1/2” value is 4.8 h and the “Tmax” value was 4.0 h.

B2: MLC100: unconjugated GLP-1/GDF15 fusion protein (protein)
chain: HGEGTFTSDVSSYLEEQAAKEFIAWLVRGGGGQEPARQGDHCPLGPGRCCRLHTVRASLEDLGWADWVLSPREVQVTMCIGACPSQFRAANLHAQIKTSLHRLKPDTVPAPCCVPASYNPMVLIQKTDTGVSLQTYDDLLAKDCHCI
For B2, in data set [1], the “Body weight reduction at 30 nmol/kg (% reduction compared to vehicle)(Day11)” value worked out at 9.9% and the “Cumulative food intake reduction at 30 nmol/kg (% reduction compared to vehicle)(Day11)” value was determined as 26.3%.

B3: MLC102: unconjugated GLP-1/GDF15 fusion protein (protein)
chain: HGEGTFTSDVSSYLEEQAAKEFIAWLVRGGGGQEPGAQPGQEPGAQPGQEPGAQPGQEPGAQPGQEPGAQPGQEPGAQPGAQPGAQPGAQPGAQPGAQPGAQPGAQPGAQPGAQPGAQPGAQPGAQPGAQPGAQPGAQPGAQPGAQPGAQPARQGDHCPLGPGRCCRLHTVRASLEDLGWADWVLSPREVQVTMCIGACPSQFRAANLHAQIKTSLHRLKPDTVPAPCCVPASYNPMVLIQKTDTGVSLQTYDDLLAKDCHCI
As to B3, in data set [1], the “Body weight reduction at 30 nmol/kg (% reduction compared to vehicle)(Day11)” value is recorded as 29.3% and the “Cumulative food intake reduction at 30 nmol/kg (% reduction compared to vehicle)(Day11)” value was determined as 36.9%.

B4: MLC023: unconjugated GLP-1/GDF15 fusion protein (protein)
chain: HGEGTFTSDVSSYLEEQAAKEFIAWLVRGGGGQEPGQEPGQEPARQGDHCPLGPGRCCRLHTVRASLEDLGWADWVLSPREVQVTMCIGACPSQFRAANLHAQIKTSLHRLKPDTVPAPCCVPASYNPMVLIQKTDTGVSLQTYDDLLAKDCHCI
As to B4, in data set [1], the “Body weight reduction at 30 nmol/kg (% reduction compared to vehicle)(Day11)” value amounted to 12.5% and the “Cumulative food intake reduction at 30 nmol/kg (% reduction compared to vehicle)(Day11)” value is on record as 31.7%.

B5: MLC003: unconjugated GLP-1/GDF15 fusion protein (protein)
chain: HGEGTFTSDVSSYLEEQAAKEFIAWLVRGGGGQEPGQEPGQEPGQEPGQEPGQEPGQEPGQEPGAQPGAQPARQGDHCPLGPGRCCRLHTVRASLEDLGWADWVLSPREVQVTMCIGACPSQFRAANLHAQIKTSLHRLRPDTVPAPCCVPASYNPMVLIQRTDTGVSLQTYDDLLARDCHCI
Consider B5, for which, in data set [1], the “Body weight reduction at 30 nmol/kg (% reduction compared to vehicle)(Day11)” value amounted to 15.5% and the “Cumulative food intake reduction at 30 nmol/kg (% reduction compared to vehicle)(Day11)” value was determined as 25.3%. Also, in data set [2], the Cmax was 24.7 nmol/L; the “exposure (Cmax and AUC)” value was “much shorter half-lives and exposures than MLC002 and MLC004”; the “half-life (T1/2)” value was “much shorter half-lives and exposures than MLC002 and MLC004”; the “AUC0-24 h” value amounted to 107.4 nmol·h/L. Further, in data set [2], the “Terminal t1/2” value was 3.5 h and the time of peak concentration (Tmax) amounted to 1.0 h.

B6: MLC020: unconjugated GLP-1/GDF15 fusion protein (protein)
chain: HGEGTFTSDVSSYLEEQAAKEFIAWLVRGGGGQEPGQEPGQEPGQEPGQEPGQEPGQEPGQEPGAQPGAQPARQGDHCPLGPGRCCRLHTVRASLEDLGWADWVLSPREVQVTMCIGACPSQFRAANLHAQIKTSLHRLKPDTVPAPCCVPASYNPMVLIQKTDTGVSLQTYDDLLAKDCHCI
For B6, in data set [1], the “Body weight reduction at 30 nmol/kg (% reduction compared to vehicle)(Day11)” value was determined as 17.0% and the “Cumulative food intake reduction at 30 nmol/kg (% reduction compared to vehicle)(Day11)” value was 26.0%.

B7: MLC022: unconjugated GLP-1/GDF15 fusion protein (protein)
chain: HGEGTFTSDVSSYLEEQAAKEFIAWLVRGGGGQEPGQEPGQEPGQEPGQEPGQEPARQGDHCPLGPGRCCRLHTVRASLEDLGWADWVLSPREVQVTMCIGACPSQFRAANLHAQIKTSLHRLKPDTVPAPCCVPASYNPMVLIQKTDTGVSLQTYDDLLAKDCHCI
As to B7, in data set [1], the “Body weight reduction at 30 nmol/kg (% reduction compared to vehicle)(Day11)” value was found to be 10.4% and the “Cumulative food intake reduction at 30 nmol/kg (% reduction compared to vehicle)(Day11)” value worked out at 30.0%.

B8: MLC090: fusion polypeptide SEQ ID NO: 379 conjugated with Moiety C at 39C of Linker (conjugate)
chain: HGEGTFTSDVSSYLEEQAAKEFIAWLVRGGGGAQPGAQPGAQPGAQPGAQPGAQPGAQPGAQPGQEPGQCPGQEPGAQPGQEPGAQPGQEPGAQPGQEPGAQPGQEPGAQPARQGDHCPLGPGRCCRLHTVRASLEDLGWADWVLSPREVQVTMCIGACPSQFRAANLHAQIKTSLHRLKPDTVPAPCCVPASYNPMVLIQKTDTGVSLQTYDDLLAKDCHCI
modifications: Moiety C conjugated at linker Cys39
In the case of B8, in data set [3], the “Body weight reduction at 30 nmol/kg (% reduction compared to vehicle)(Day11)” value is reported as 24.5% and the “Cumulative food intake reduction at 30 nmol/kg (% reduction compared to vehicle)(Day11)” value came to 44.4%. For the same molecule, in data set [4] (setting [6]), the body weight loss result was “more body weight loss, food intake suppression and glycemic control”; the food intake suppression entry was “more body weight loss, food intake suppression and glycemic control”; the glycemic control entry is “more body weight loss, food intake suppression and glycemic control”. Besides, the efficacy entry in data set [4] (FIG. 8 study) was “better efficacy than Semaglutide and GDF15 derivative (MLC014)”. In data set [5], the “AUC0-96 h” value worked out at 1987 nmol·h/L, the “Terminal t1/2” value worked out at 40 h and the “Tmax” value is 7 h. Also, the Cmax in data set [5] (read-out: Cmax (nmol/L)) was 36 nmol/L.

A word on the Tmax: it is the time from dosing to the highest level.
